Results published in article PMC10917064.
Values belong to the substance of their own block, whether it stands above or below them.

Experiments:
[1] = biological target: mUb-K240 VASP (VASP^CCC-SSA K240C crosslinked by bismaleimidoethane to ubiquitin^(1-74, G75C)) (UniProt P0CG48); experiment: mass photometry; 15 nM VASP, room temperature, Refeyn One; margin of error of each mass about 20-25%
[2] = biological target: mUb-K286 VASP (VASP^CCC-SSA K286C crosslinked by bismaleimidoethane to ubiquitin^(1-74, G75C)) (UniProt P0CG48); experiment: as above
[3] = biological target: mmUb-K240/K286 VASP (VASP^CCC-SSA K240C, K286C crosslinked by bismaleimidoethane to two ubiquitin^(1-74, G75C)) (UniProt P0CG48); experiment: as above
[4] = biological target: chicken skeletal muscle actin (filaments, 10% Alexa Fluor 488 labeled) (chicken) (UniProt P68139); experiment: single-molecule TIRF microscopy (dwell time); 1 nM TAMRA–VASP at the trailing barbed end of two-filament bundles; 1.5 µM actin (10% Alexa Fluor 488 labeled), 673 nM fascin, TIRF buffer, room temperature; 0.5 s/frame; one-phase decay fit of 1−cumulative frequency
[5] = biological target: unmodified VASP (TAMRA–VASP; cysteine-light VASP^CCC-SSA with an N-terminal GGG motif) (human); experiment: mass photometry; 15 nM VASP, room temperature, Refeyn One; margin of error of each mass about 20-25%

stoichiometry N [1]: 4
Substance: mUb-K240 VASP (VASP^CCC-SSA K240C crosslinked by bismaleimidoethane to ubiquitin^(1-74, G75C)) (from UniProt P0CG48 1-75) (complex)

stoichiometry N [2]: 4
Substance: mUb-K286 VASP (VASP^CCC-SSA K286C crosslinked by bismaleimidoethane to ubiquitin^(1-74, G75C)) (from UniProt P0CG48 1-75) (complex)

stoichiometry N [3]: 4 | lifetime τ1 at the barbed end [4]: 1.14 s
Substance: mmUb-K240/K286 VASP (VASP^CCC-SSA K240C, K286C crosslinked by bismaleimidoethane to two ubiquitin^(1-74, G75C)) (from UniProt P0CG48 1-75) (complex)

stoichiometry N [5]: 4 | lifetime τ1 at the barbed end [4]: 1.17 s
Substance: unmodified VASP (TAMRA–VASP; cysteine-light VASP^CCC-SSA with an N-terminal GGG motif) (natural protein)
